We go through 8 molecules from doi:10.1101/201277 (bioRxiv, 2017).

Like-named read-outs stand apart in the source and are kept apart here.

B1: pfkA operator (BLI) (dsDNA)
DNA 1: ATGCATGTTGTGTGGCCTGAATCAATTCAGCTCACACAGGTGTCC
DNA 2: GGACACCTGTGTGAGCTGAATTGATTCAGGCCACACAACATGCAT
B2: aceB operator (filter binding) (dsDNA)
DNA 1: TGTTGTGTGGGCTGAATCGCTTAACGTCACACAGG
DNA 2: CCTGTGTGACGTTAAGCGATTCAGCCCACACAACA
B3: fructose-1-kinase (FruK), recombinant, separately purified (enzyme, E. coli, UniProt P0AEW9 1-312, looked up)
chain: MSRRVATITLNPAYDLVGFCPEIERGEVNLVKTTGLHAAGKGINVAKVLKDLGIDVTVGGFLGKDNQDGFQQLFSELGIANRFQVVQGRTRINVKLTEKDGEVTDFNFSGFEVTPADWERFVTDSLSWLGQFDMVCVSGSLPSGVSPEAFTDWMTRLRSQCPCIIFDSSREALVAGLKAAPWLVKPNRRELEIWAGRKLPEMKDVIEAAHALREQGIAHVVISLGAEGALWVNASGEWIAKPPSVDVVSTVGAGDSMVGGLIYGLLMRESSEHTLRLATAVAALAVSQSNVGITDRPQLAAMMARVDLQPFN
B4: fruB proximal operator (filter binding) (dsDNA)
DNA 1: TGTTGTGTGGTTCTTGAAACGTTTCAGCTCACACAGG
DNA 2: CCTGTGTGAGCTGAAACGTTTCAAGAACCACACAACA
B5: aceB operator (BLI) (dsDNA)
DNA 1: ATGCATGTTGTGTGGGCTGAATCGCTTAACGTCACACAGGTGTCC
DNA 2: GGACACCTGTGTGACGTTAAGCGATTCAGCCCACACAACATGCAT
B6: catabolite repressor activator protein (Cra), wild-type (natural protein, E. coli, UniProt P0ACP1 1-334, looked up)
chain: MKLDEIARLAGVSRTTASYVINGKAKQYRVSDKTVEKVMAVVREHNYHPNAVAAGLRAGRTRSIGLVIPDLENTSYTRIANYLERQARQRGYQLLIACSEDQPDNEMRCIEHLLQRQVDAIIVSTSLPPEHPFYQRWANDPFPIVALDRALDREHFTSVVGADQDDAEMLAEELRKFPAETVLYLGALPELSVSFLREQGFRTAWKDDPREVHFLYANSYEREAAAQLFEKWLETHPMPQALFTTSFALLQGVMDVTLRRDGKLPSDLAIATFGDNELLDFLQCPVLAVAQRHRDVAERVLEIVLASLDEPRKPKPGLTRIKRNLYRRGVLSRS
B7: fruB proximal operator (BLI) (dsDNA)
DNA 1: ATGCATGTTGTGTGGTTCTTGAAACGTTTCAGCTCACACAGGTCC
DNA 2: GGACCTGTGTGAGCTGAAACGTTTCAAGAACCACACAACATGCAT
B8: fruB distal operator (filter binding) (dsDNA)
DNA 1: TGTTGTGTGGGAGGCTGAATCGTTTCAATCACACAGG
DNA 2: CCTGTGTGATTGAAACGATTCAGCCTCCCACACAACA

Series [1] concerns the target T1, Cra (FruR) (Escherichia coli strain 3.300 …, UniProt P0ACP1 1-334). In words: BLI. (In general: Biolayer interferometry detects binding as a change in optical thickness at a sensor tip.)
For series [2], the target named is T2, Cra (FruR);FruK (fructose-1-kinase, 1-phosphofructokinase) (Escherichia coli strain 3.300 …, UniProt P0ACP1;P0AEW9 1-334;1-312, |). The series can be described thus: BLI.
The target of series [3] is T1, Cra (FruR). In words: filter binding.
Series [4] concerns the target B6. The series can be described thus: pull-down.
The target of series [5] is T2, Cra (FruR);FruK (fructose-1-kinase, …). In words: BLI. This is another data set of the same source.
Series [6] concerns the molecule itself. In words: elution from a phosphocellulose column.
Series [7] addresses T2, Cra (FruR);FruK (fructose-1-kinase, …). The series can be described thus: BLI. The source holds these as a separate data set.

On to B1, for which the binding result (with Cra (FruR) [1]; in series [2]) was “binds” in each case.

For the molecule B2, the Kd (in general, a measure of binding affinity in units of concentration) with Cra (FruR) [3] came out at 1.7 nM.

In series [4], B3 showed a Kd of less than 100 nM.

In the series with Cra (FruR) [3], B4 registered a Kd of 0.018 nM.

For B5, the binding result (with Cra (FruR) [1]; in series [5]) was “binds” in each case.

For B6, the stoichiometry N (commonly a count of units in the complex or per binding partner) in series [6] was 2.

As to B7, the binding result (in series [7]; with Cra (FruR) [1]) was “binds” throughout.

In turn, B8 displayed a Kd with Cra (FruR) [3] of 0.018 nM.
